Reference: publication PMC11032339

How the values were obtained:
[1] = molecular target: soluble full-length recombinant ADAMTS13 (UniProt Q76LX8); test: SPR; Biacore T200; ADAMTS13, MDTCS (or fibrinogen) immobilised on CM5 by amine coupling (500-1000 RU); analytes 0-7 µM (or 0-3.5 µM) with 5 mM AEBSF and 10 µM VFKck; 20 mM HEPES-NaOH, 150 mM NaCl, pH 7.4, 0.01% Tween-20, 10 mM CaCl2, 10 µM ZnCl2; 20 µl/min, 25 °C; equilibrium responses fitted to a one-site binding model
fibrinogen = test: as above
[2] = molecular target: soluble full-length recombinant ADAMTS13 (UniProt Q76LX8)

UniProt Q76LX8, sequence (Q76LX8 75-1427): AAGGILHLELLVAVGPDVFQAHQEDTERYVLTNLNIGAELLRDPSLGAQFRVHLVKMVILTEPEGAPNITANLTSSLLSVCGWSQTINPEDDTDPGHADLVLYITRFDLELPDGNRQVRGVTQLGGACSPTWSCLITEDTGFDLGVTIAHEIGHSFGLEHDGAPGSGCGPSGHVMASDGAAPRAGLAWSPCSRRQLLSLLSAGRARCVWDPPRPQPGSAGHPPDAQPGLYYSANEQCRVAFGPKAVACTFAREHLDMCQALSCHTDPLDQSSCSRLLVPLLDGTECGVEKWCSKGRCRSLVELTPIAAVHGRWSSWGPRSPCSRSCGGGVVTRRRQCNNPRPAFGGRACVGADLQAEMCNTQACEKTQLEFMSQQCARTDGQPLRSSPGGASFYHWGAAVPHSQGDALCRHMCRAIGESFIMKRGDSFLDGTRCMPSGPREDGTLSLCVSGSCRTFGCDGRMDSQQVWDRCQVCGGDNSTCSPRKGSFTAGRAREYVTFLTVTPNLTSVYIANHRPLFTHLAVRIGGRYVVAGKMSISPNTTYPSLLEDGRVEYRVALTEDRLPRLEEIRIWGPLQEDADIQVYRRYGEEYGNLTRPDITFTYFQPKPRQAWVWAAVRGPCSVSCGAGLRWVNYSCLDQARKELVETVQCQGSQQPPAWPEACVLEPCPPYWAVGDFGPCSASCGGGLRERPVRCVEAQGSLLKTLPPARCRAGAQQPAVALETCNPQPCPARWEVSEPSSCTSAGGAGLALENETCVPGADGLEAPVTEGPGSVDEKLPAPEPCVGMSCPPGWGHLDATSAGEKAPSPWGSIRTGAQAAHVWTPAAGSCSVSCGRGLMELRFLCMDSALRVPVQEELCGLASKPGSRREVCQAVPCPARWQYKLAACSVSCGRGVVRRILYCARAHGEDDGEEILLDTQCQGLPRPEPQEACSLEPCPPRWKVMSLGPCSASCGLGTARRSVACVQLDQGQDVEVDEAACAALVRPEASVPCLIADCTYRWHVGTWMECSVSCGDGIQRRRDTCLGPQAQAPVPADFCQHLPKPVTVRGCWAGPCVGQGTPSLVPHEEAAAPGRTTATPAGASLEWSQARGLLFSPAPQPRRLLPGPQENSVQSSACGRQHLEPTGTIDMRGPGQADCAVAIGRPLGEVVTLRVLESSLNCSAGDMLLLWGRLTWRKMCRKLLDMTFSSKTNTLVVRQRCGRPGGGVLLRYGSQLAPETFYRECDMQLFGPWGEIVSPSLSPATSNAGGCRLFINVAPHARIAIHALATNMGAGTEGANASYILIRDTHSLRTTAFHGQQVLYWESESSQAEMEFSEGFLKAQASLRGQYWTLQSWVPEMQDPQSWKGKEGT

Substance | Kd [1] [nM] | Kd (fibrinogen) [nM] | rate of degradation of 100 nM ADAMTS13 by 10 nM active plasmin (Prolytix, not VFK-blocked) at 37 °C in the presence of 5 mM TXA; Western blot densitometry of the intact ADAMTS13 band [2] [nM/min] | rate of degradation of 100 nM ADAMTS13 by 10 nM active plasmin (Prolytix, not VFK-blocked) at 37 °C without TXA; Western blot densitometry of the intact ADAMTS13 band [2] [nM/min]
17-kringle form of apolipoprotein(a) (natural protein) | 4000 | 2400 | – | –
Glu-plasminogen (natural protein) | 2800 | – | – | –

The next substances have a lower Kd [1] than those just listed; values first:

Kd [1] [nM] | Kd (fibrinogen) [nM] | rate of degradation of 100 nM ADAMTS13 by 10 nM active plasmin (Prolytix, not VFK-blocked) at 37 °C in the presence of 5 mM TXA; Western blot densitometry of the intact ADAMTS13 band [2] [nM/min] | rate of degradation of 100 nM ADAMTS13 by 10 nM active plasmin (Prolytix, not VFK-blocked) at 37 °C without TXA; Western blot densitometry of the intact ADAMTS13 band [2] [nM/min] | Substance
1000 | – | – | – | Lys-plasminogen (natural protein)
1500 | – | – | – | Mini-plasminogen (domain or fragment)
1800 | – | 0.05 | 1.6 | VFK-plasmin (enzyme)
